Source: patent publication US20140348834A1 (published 2014)

T1: mouse IL-17A (mouse, UniProt Q62386 26-158, limits assumed)
T1 sequence (looked up): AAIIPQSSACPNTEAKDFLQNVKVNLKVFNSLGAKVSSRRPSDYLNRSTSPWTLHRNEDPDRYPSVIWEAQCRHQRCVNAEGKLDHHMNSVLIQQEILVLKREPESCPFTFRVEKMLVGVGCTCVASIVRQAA

T2: rat IL-17A (rat, UniProt Q61453 18-150, limits assumed)
T2 sequence (looked up): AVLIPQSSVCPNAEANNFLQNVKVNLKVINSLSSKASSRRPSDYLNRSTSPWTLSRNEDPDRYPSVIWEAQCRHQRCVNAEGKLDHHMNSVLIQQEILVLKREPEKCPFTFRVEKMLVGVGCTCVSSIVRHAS


Assays:
[1] = target: T3, human IL-17A (human, UniProt Q16552 24-155); assay: ELISA, captured antibody, serially diluted biotin-IL-17 (Example 1.5.1)
T3 construct: Biotinylated in the ELISA; also called hIL-17; Hu IL-17A
Protocol: The following protocol is used to characterize the binding of IL-17 antibodies to human IL-17 by enzyme-linked immunosorbent assay (ELISA). […] 1. Coat ELISA plate with 50 μl per well of Goat anti Mouse IgG-Fc at 2 ug/ml, overnight at 4° C. […] 2. Wash plate 3×PBS/Tween. […] 3. Add 50 μl Mab diluted to 1 μg/ml in PBS/0.1% BSA to appropriate wells. Incubate 1 hr at room temperature (RT). […] 4. Wash plate 3× with PBS/Tween. […] 5. Add 50 μl of serial diluted biotin-IL17 (human IL-17, IL-17A/F, cyno IL-17) to appropriate wells. Incubate 1 hr at room temperature (RT). […] 6. Wash plate 3× with PBS/Tween. […] 7. […] Incubate 1 hr at RT. […] 8. Wash plate 3× with PBS/Tween. […] 9. […] 10. Stop reaction with 50 μl 2N H₂SO₄. […] Read absorbance at 450 nm.

[2] = target: rabbit IL-17A (rabbit); assay: cell-based or functional assay
[3] = target: T3, human IL-17A; assay: cell-based or functional assay
[4] = target: T1, mouse IL-17A; assay: cell-based or functional assay
[5] = target: cynomolgous monkey (cyno) IL-17A (cynomolgus monkey, UniProt A0A2K5TTB0 24-155); assay: cell-based or functional assay
[6] = target: T2, rat IL-17A; assay: cell-based or functional assay
[7] = target: human IL-17A/F (human, UniProt Q16552 24-155; Q96PD4 31-163); assay: cell-based or functional assay
Sequence of human IL-17A/F (Q16552 24-155 limits assumed, chain 1 of 2): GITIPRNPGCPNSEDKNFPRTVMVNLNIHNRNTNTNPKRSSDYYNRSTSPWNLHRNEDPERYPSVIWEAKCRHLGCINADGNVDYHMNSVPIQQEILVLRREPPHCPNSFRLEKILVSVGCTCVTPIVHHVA
Sequence of human IL-17A/F (Q96PD4 31-163 limits assumed, chain 2 of 2): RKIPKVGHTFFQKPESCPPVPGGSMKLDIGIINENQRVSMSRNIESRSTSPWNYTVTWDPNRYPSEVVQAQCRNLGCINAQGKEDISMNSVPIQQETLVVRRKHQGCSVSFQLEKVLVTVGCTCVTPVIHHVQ

T3 sequence (Q16552 24-155 limits assumed): as the sequence (Q16552 24-155 limits assumed, chain 1 of 2) above
Sequence of cynomolgous monkey (cyno) IL-17A (A0A2K5TTB0 entry or part of it): as the sequence (Q16552 24-155 limits assumed, chain 1 of 2) above, with T3A, P8S, N34S, I77V, N78K, P104R counted along it

Binder	EC50 [1] [nM]	Potency (pM), IL-17 and TNF-induced IL-6 secretion from NIH3T3 cells [2] [pM]	Potency (pM), IL-17-driven IL-6 production in HS27 cells [3] [pM]	Potency (pM), IL-17 and TNF-induced IL-6 secretion from NIH3T3 cells [4] [pM]	Potency (pM), IL-17-driven IL-6 production in HS27 cells [5] [pM]	Potency (pM), IL-17 and TNF-induced IL-6 secretion from NIH3T3 cells [6] [pM]	Potency (pM), IL-17-driven IL-6 production in HS27 cells [7] [pM]
IL17-B6-5 (antibody, V domains shown, also called pJP243 B6.1 #5VH / pJP244 B6.1 #5VK) VH: EVQLVQSGAEVKKPGESVKISCKASGGSFRSYGISWVRQAPGQGLEWMGGITHFFGITDYAQKFQGRVTITADESTTTAYMELSGLTSDDTAVYYCAREPNDFWNGYYDTHDFDSWGQGTTVTVSS VL: EIVLTQSPDFQSVTPKEKVTITCRASQNIGSELHWYQQKPDQSPKLLIKYASHSISGVPSRFSGSGSGTDFTLTINGLEAEDAATYYCHQSDTLPHTFGQGTKVDIK	0.22	320	18	64	12	73	134
IL17-B6-17 (antibody, V domains shown, also called pJP249 B6.1 #17VH / pJP252 B6.1 #17Vk) VH: EVQLVQSGAEVKKPGSSVKVSCKASGGSFGGYGIGWVRQAPGQGLEWMGGITPFFGFADYAQKFQGRVTITADESTTTAYMELSGLTSDDTAVYYCARDPNEFWNGYYSTHDFDSWGQGTTVTVSS VL: EIVLTQSPDFQSVTPKEKVTITCRASQDIGSELHWYQQKPDQPPKLLIKYASHSTSGVPSRFSGSGSGTDFTLTINGLEAEDAGTYYCHQTDSLPYTFGPGTKVDIK	0.13	232	15	69	11	111	137
